Laboratory results reported in patent US20200017552A1.

Key:
[1] = target: Influenza H1 hemagglutinin (HA), strain not stated for this experiment; assay: biolayer interferometry after incubation at 80 °C; HA strain not stated
[2] = target: HA of Ft. Monmouth influenza virus (on virions) (influenza virus strain Ft. Monmouth); assay: cell-based or functional assay

For mAb FI6v3 (antibody), the reduction of binding activity after 1 hr at 80 °C [1] was 74% and the EC50 values for inhibition of viral replication in vitro [2] was 3.1 µg/mL.
